The values that follow come from patent US20230212305A1 (published 2023).

For assay [1], the target named is T1, human ABCG2 (UniProt Q9UNQ0 1-655).
T1 chain: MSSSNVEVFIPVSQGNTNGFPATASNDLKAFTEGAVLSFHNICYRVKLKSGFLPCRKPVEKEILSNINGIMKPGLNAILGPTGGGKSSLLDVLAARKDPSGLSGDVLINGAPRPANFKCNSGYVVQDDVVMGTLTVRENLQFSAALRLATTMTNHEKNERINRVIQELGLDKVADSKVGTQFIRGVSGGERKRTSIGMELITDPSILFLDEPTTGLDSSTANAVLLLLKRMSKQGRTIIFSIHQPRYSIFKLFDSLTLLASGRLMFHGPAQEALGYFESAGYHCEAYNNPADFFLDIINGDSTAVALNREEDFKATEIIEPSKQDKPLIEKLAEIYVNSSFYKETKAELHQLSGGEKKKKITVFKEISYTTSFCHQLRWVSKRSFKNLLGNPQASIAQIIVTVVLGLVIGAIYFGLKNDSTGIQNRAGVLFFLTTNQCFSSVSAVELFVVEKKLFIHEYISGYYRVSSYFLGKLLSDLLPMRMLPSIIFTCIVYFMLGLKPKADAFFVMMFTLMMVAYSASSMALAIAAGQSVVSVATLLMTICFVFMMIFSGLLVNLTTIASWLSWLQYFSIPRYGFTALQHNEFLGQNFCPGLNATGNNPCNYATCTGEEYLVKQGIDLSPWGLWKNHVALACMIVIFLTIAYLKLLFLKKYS
Nature of the assay: cell binding.

Assay [2] addresses T2, cynomolgus ABCG2 (Macaca fascicularis) (UniProt Q5MB13 1-654).
T2 chain: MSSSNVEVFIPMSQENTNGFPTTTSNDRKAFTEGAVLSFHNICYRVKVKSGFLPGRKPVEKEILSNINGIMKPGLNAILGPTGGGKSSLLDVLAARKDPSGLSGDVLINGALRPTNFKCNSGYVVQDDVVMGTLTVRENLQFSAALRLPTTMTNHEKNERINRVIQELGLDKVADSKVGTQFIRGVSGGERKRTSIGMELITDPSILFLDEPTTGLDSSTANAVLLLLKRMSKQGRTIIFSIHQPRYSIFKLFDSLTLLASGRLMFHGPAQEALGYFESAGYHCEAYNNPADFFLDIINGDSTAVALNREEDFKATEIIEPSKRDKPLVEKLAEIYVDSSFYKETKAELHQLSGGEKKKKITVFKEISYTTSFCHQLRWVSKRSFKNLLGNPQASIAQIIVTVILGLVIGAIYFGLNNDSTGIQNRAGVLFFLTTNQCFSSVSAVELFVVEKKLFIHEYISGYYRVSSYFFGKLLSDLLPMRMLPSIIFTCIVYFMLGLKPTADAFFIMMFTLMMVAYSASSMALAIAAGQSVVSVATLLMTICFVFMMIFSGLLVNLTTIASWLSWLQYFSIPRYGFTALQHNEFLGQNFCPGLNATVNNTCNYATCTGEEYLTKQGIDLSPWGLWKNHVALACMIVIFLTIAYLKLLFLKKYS
Nature of the assay: cell binding.

In assay [3] the target is T2, cynomolgus ABCG2 (Macaca fascicularis). As to the kind of experiment: FACS binding to 293T.cG2 cells. In general terms: Flow cytometry measures light scatter and fluorescence of single cells or particles in a stream.
Assay [4] has as its target T1, human ABCG2. Nature of the assay: FACS binding to 293T.hG2 cells.
Assay [5] addresses T1, human ABCG2. Nature of the assay: FACS binding to 293T cells.
The target in assay [6] is T2, cynomolgus ABCG2 (Macaca fascicularis). As to the kind of experiment: FACS binding to 293T cells.
For assay [7] the target is unchanged. As to the kind of experiment: FACS binding to 293T cells.

B1: G2.636.hu25 (antibody, V domains shown)
VH: EVQLVESGGGLVQPGGSLRLSCAASGFTFSRFYMAWVRQAPGKGLEWVAHISHGGDTTYYRDSVKGRFTISRDNSKNTLYLQMNSLRAEDTAVYYCTTSAAPWNYVMDGWGQGTLVTVSS
VL: AIQLTQSPSSLSASVGDRVTITCKGSQNINNFLAWYQQKPGKAPKLLIYKTNSLHTGIPSRFSGSGSGTDYTLTISSLQPEDFATYYCYQYNNGYTFGQGTKLEIK
One may read the EC50 as the concentration at which the effect is half-maximal. As for B1, the EC50 is 28.5 nM with human ABCG2 [1] and 87.4 nM in assay [2].

B2: G2.636.hu45 (antibody, V domains shown)
VH: EVQLVESGGGLVQPGGSLRLSCAASGFTFSRFYMAWVRQAPGKGLEWVAHISHGGDTTYYRDSVKGRFTISRDNSKNTLYLQMNSLRAEDTAVYYCTTSAAPWNYVMDGWGQGATVTVSS
VL: AIQLTQSPSSLSASVGDRVTITCKGSQNINNFLAWYQQKPGKAPKLLIYKTNSLHTGIPSRFSGSGSGTDYTLTISSLQPEDFATYYCYQYNNGYTFGQGTKLEIK
Take B2: the results for the half-maximal effective concentration (EC50) (in the assay with human ABCG2 [1]; in assay [2]) were 18.5 nM and 65.3 nM, respectively.

B3: G2.636.hu47 humanized (antibody, V domains shown)
VH: EVQLVESGGGLVQPGGSLRLSCAASGFTFSRFYMAWVRQAPGKGLEWVAHISHGGDTTYYRDSVKGRFTISRDNSKNTLYLQMNSLRAEDTAVYYCTTSAAPWNYVMDGWGQGATVTVSS
VL: DIQLTQSPSSLSASVGDRVTLTCKGSQNINNFLAWYQQKPGKAPKLLIYKTNSLHTGIPSRFSGSGSGTDYTLTISSLQPEDFATYYCYQYNNGYTFGQGTKLEIK
As to B3, the EC50 with human ABCG2 [1] came to 20.4 nM; in assay [2], 42.6 nM.

B4: G2.636.hu27 (antibody, V domains shown)
VH: EVQLVESGGGLVQPGGSLRLSCAASGFTFSRFYMAWVRQAPGKGLEWVAHISHGGDTTYYRDSVKGRFTISRDNSKNTLYLQMNSLRAEDTAVYYCTTSAAPWNYVMDGWGQGTLVTVSS
VL: DIQLTQSPSSLSASVGDRVTLTCKGSQNINNFLAWYQQKPGKAPKLLIYKTNSLHTGIPSRFSGSGSGTDYTLTISSLQPEDFATYYCYQYNNGYTFGQGTKLEIK
For B4, the EC50 in the assay with human ABCG2 [1] was found to be 23.1 nM; in assay [2] it was 38.8 nM.

B5: G2_767 (antibody, V domains shown)
VH: QVQLKESGPGLVQPSQTLSLTCTVSGLSLSSNSVSWIRQPPGKGLEWMGVIWNNGGTDYNSAIKSRLSISRDTSKSQVFLKLSSLQTEDTAMYFCARGYSSYIFDYWGQGVMVTVSS
VL: DIQMTQSPPSLSASLGDKVTITCQSSQNINNYIAWYQQKPGEAPRVLIRYTSTLQSGAPSRFSGSGSWRDYSFTISNVESEDIADYYCLQYVNLWTFGGGTKLEIK
Broadly, the Kd is the concentration at which binding is half-saturated. The low end stands for a tighter complex, the high end for a looser complex. For the molecule B5, the Kd in assay [3] came out at 1370 nM; with human ABCG2 [4] it was 31.2 nM.

B6: G2.758 rat (antibody, V domains shown)
VH: QGTLKESGPGIVQSSHTLSLTCSFSGFSLSTYGMGVSWIRQPSGKGLEWLASVWWNGDTSNNPSLKSRLTVSKDTS
VL: DIQMTQSPPSLSASLGDKVTITCQASQNIYKYIAWYQQKPGKAPRLLIRYTSTLHFGTPSRFSGSGSGRDYSFSISNVESEDIARYYCQQYVKFPNTFGAGTILELK
As for B6, the dissociation constant (Kd) in assay [3] came out at 107 nM; in the assay with human ABCG2 [4], 17.5 nM.

B7: G2.343 rat (antibody, V domains shown)
VH: SVQLKESGPGLVQPSQTLSLTCTVSGFSLTSNGVSWVRQPPGKGLEWIAAISSGGSTYYNSVLKSRLSISRDTSKSQVFLKMNSLQTEDTAIYFCTRDTYYGYNQIPFVYWGQGTLVTVSS
VL: DVVLAQTPPTLSATIGQSVSISCRSSQSLLHSSGNTYLNWLLQRPGQPPQLLIYLVSRLESRVPNRFSGSGSGTDFTLKISGVEAEDLGVYYCVQSTHAPRTFGGGTKLELK
B7: the Kd was found to be 8.4 nM in the assay with human ABCG2 [5] and 58.4 nM in assay [6].

B8: G2.420 rat (antibody, V domains shown)
VH: SVQLMESGPGLVQPSQTLSLTCTVSGFSLNSYNVNWVRQPPGKGLEWIAAISSGGSTYYNSVLKSRLSITRDTSKSQVFLKMNSLQTEDTAMYFCARSGYYSSYMNWGQGVMVTVSS
VL: DVVMTQTPPTLSATIGQSVSISCRSSQSLLHSTGNTYLNWLLQRPGQPPQLLIYLVSRLEYGVPNRFSGSGSGTDFTLKISGVEAEDLGVYYCAQSTHALNTFGAGTKLELK
On to B8, for which the Kd turned out to be 11.1 nM with human ABCG2 [5] and 29.9 nM in assay [6].

B9: G2.757 rat (antibody, V domains shown)
VH: QVTLKESGPGILRPSHTLSLTCSFSGFSLTTYGICVSWIRQPSGKGLEWLANICWEDSKAYNPSLKNRLTISKDTSNNQVFLRIPSVDTADSAIYYCARVFNNYPFPYWGQGTLVTVSS
VL: TQSPPSLSASLGDKVTITCQASQNINKYVAWYQQKPGKAPRLLIRYTSTLESGTPSRFSGSGSWRDYSFSISNVESEDIADYYCLQYVNLWTFGGGTKLELK
Consider B9, for which the Kd was found to be 73.5 nM in assay [3] and 12.4 nM with human ABCG2 [4].

B10: G2.760 rat (antibody, V domains shown)
VH: EVQLVESGGGLVQPGRSMKLSCAASGFTFSKSDMAWVRQAPTKGLKWVASIRYDGGNTYYRDSVRGRFTISRDNAKSTLYLQMDSLRSEDTATYYCSTAKAAISTPSYYVLDAWGQGASVTVSS
VL: DIGMTQSPTSMSKSVGDRVTMNCKASQNVGSNVDWFQQKTGQSPKLLIYKSSNRYTGVPARFTGSGSGTDFTFTISNMQAEDLAVYYCMQSNSYPPTFGGGTKLELK
As to B10, the Kd in assay [3] came to 2.4 nM; with human ABCG2 [4], 3.4 nM.

B11: G2.333 rat (antibody, V domains shown)
VH: EIQLQESGPGLVKPSQSLSLTCSVTGYTITSGYDWTWLRKFPGNKMEWMGYISYSGFTNYNPSLRSRISISRDTSKNQFFLQLNSVTTEDTATYYCARTRGYNPFPYWGQGTLVTVSS
VL: DIQMTQSPSLLSASVGDRVSLSCKAGRNVNNYLAWYQQKLGKPPKLLIYNSNSLQTGIPSRFSGSGSGTDFTLTISSLQPEDVATYFCQQYNSWTTFGSGTKLEIK
Turning to B11, in assay [6], binding was characterised by a dissociation constant (Kd) of 111 nM.

B12: G2.318 rat (antibody, V domains shown)
VH: EVKLLESGPGLVKPSQSLSLTCSVTGYTITSGYDWSWIRKFPGNKMEWMGYISYSGWTNYNPSLRSRISISRDTSKNQFFLQLNSVTTEDTATYYCARVRGYNPFAYWGQGTLVTVSS
VL: DIVMTQSPSLLSASVGDRVTLSCKAGQNINNYLAWYQQKLGEAPKLLIYNANSLQTGIPSRFSGSGSGTDFTLTISSLQPEDVATYFCQQYNSWTTFGSGTKLEIK
Consider B12, for which binding in assay [6] was put at a Kd of 49.8 nM.

B13: G2.631 rat (antibody, V domains shown)
VH: EVKLLESGGGLVQSGRSLKLSCAASGFIFSRFYMAWVRQAPRKGLEWVAYISNGAGSTYYRESVKGRFIISRDNAKSTLYLQMDSLRSEDTATYYCTTVAAPWNYVMDGWGQGASVTVSS
VL: NIQITQSPSLLSASVGDRVTLSCKGSQNINNYLAWYQQKLGEAPKLLIYKTNSLHTGIPSRFSGSGSGTDYTLTISSLHSEDLATYYCYQYNNGYTFGAGTKLELK
Consider B13, for which the dissociation constant Kd in the assay with human ABCG2 [5] is 4.6 nM; in assay [6], 67.7 nM; in assay [7], 15 nM.

B14: G2.629 rat (antibody, V domains shown)
VH: EVQLVESGGGLVQPGRSLKLSCAASGFIFSRFYMAWVRQAPTKGLEWVAYINTGGGTTYYRDSVKGRFTISRDNAKTTLYLQMDSLRSEDTATYYCTTLAAPWNYVMDAWGQGASVTVSS
VL: DVVMTQSPSLLSASVGDRVTLTCKGSQNINNFLAWYQQKLGEAPKLLTYKTNSLHTGIPSRFSGSGSGTDYTLTISSLHSEDLATYYCYQYNNGYTFGPGTKLELK
B14: the dissociation constant Kd with human ABCG2 [5] amounted to 50.1 nM; in assay [6], 540 nM.
